Assay results as given in patent publication US11571480B2, “Multi-ligand drug conjugates and uses thereof” (priority 2015, dated 2023).
Numbered stars: 1 amine (or outer) side, 2 acyl side, 3 side chain; on linkers, the order of the positions; unused ones are H or OH. Bridge positions count the residues as written; N and C are the ends. Square brackets hold non-standard residues; d marks the D form. Peptide text beside a SMILES is read from it. I, II: the chains in the order shown. * marks the point of attachment. Hexanoyl(6-succinimido-3yl) = O=C1CC([*:1])C(=O)N1CCCCCC(=O)[*:2]; Dolaproine = CO[C@@H]([C@@H]1CCCN1)[C@@H](C)C(=O)O; Dil = CC[C@H](C)[C@H](NC)[C@@H](CC(=O)O)OC; PABC = O=C(OCc1ccc(N[*:1])cc1)[*:2]; X1 = C[C@@H](N*)[C@@H](O)c1ccccc1; Cit = NC(=O)NCCC[C@H](N)C(=O)O; NMeV = CN[C@H](C(=O)O)C(C)C

Tests used:
melanoma cell line A375 = assay: Cytotoxicity test of conjugate LDC1013; assay type: cell-based
Description: (§1) Culture medium: RPMI 1640 Medium, no folic acid
1) human nasopharyngeal cancer cell line KB, melanoma cell line A375, and human lung cancer cell H460 were incubated at 37° C., 5% CO2 in RPMI 1640 medium containing 10% fetal bovine serum, the cells were passaged every 2-3 days.
2) human nasopharyngeal cancer cell line KB, melanoma cell line A375, and human lung cancer cell H460 were plated at 1×10^3 cells per well (96-well plate) and incubated for 8-12 h at 37° C., 5% CO2.
(§2) 3) Stock solutions of LDC conjugates or control were prepared in PBS solution. 100 μL/well of serially diluted LDC conjugates or control was added to the cells in the plate and incubated for 15-30 min at 37° C., 5% CO2. The culture medium in the wells was then removed by aspiration and the cells were incubated in fresh culture medium without conjugates (150 μL/well) for 2-3 days at 37° C., 5% CO2.
(§3) 4) CellTiter 96® Aqueous One Solution Cell Proliferation Assay (Promega) was added to each well to measure the amount of […] cells, and the plate was incubated in an incubator for 1 h at 37° C., 5% CO2.
(§4) 5) the plate was read at 490 nm on a microplate reader, and the cell survivals were compared for cells with or without the treatment of LDC conjugates. The LDC drug concentrations that are required for 50% cell death (IC50 values) were determined.

[1] = test system: Transplanted HCC1954 tumor; assay: Inhibitory assay of conjugate LDC1013 against xenograf tumors; assay type: in vivo, nude mice; settings: for Body weight of mice / Tumor size: HCC1954 tumor
Description: (§5) Animal: nude mice, aged 6-8 weeks, female
1) Human breast cancer cells HCC1954 were incubated at 37° C., 5% CO2 in IMDM medium containing 10% fetal bovine serum, the cells were passaged every 2-3 days.
2) generation of tumors: 7×10^6 tumor cells were injected subcutaneously into the back of nude mice, and the mice were grouped for treatment after the tumor sizes were as large as about 180-320 mm^3. […]
(§6) 4) the physical performance, body weights and tumor sizes of the animals were monitored. The number of animal death was recorded during the experiment.

[2] = test system: breast cancer cell line HCC1954; assay: Cytotoxicity test of conjugate LDC10H; assay type: cell-based, human; settings: HCC1954, incubated 15-30 min, then 2-3 days
Description: as §1
(§7) 1) human lung cancer cell H1299, ovarian cancer cell SKOV3, breast cancer cell line HCC1954, and human lung cancer cell H460 were incubated at 37° C., 5% CO2 in RPMI 1640 medium containing 10% fetal bovine serum, the cells were passaged every 2-3 days.
(§8) 2) human lung cancer cell H1299, ovarian cancer cell SKOV3, breast cancer cell line HCC1954, and human lung cancer cell H460 were plated at 1×10^3 cells per well (96-well plate) and incubated for 8-12 h at 37° C., 5% CO2.
as §2, §3, §4

[3] = test system: ovarian cancer cell SKOV3; assay: Cytotoxicity test of conjugate LDC10H; assay type: cell-based, human; settings: SKOV3, incubated 15-30 min, then 2-3 days
Description: as §1, §7, §8, §2, §3, §4

[4] = test system: human lung cancer cell H1299; assay: Cytotoxicity test of conjugate LDC10H; assay type: cell-based; settings: H1299, incubated 15-30 min, then 2-3 days
Description: as §1, §7, §8, §2, §3, §4

[5] = test system: human lung cancer cell H460; assay: Cytotoxicity test of conjugate LDC10H; assay type: cell-based; settings: H460, incubated 15-30 min, then 2-3 days
Description: as §1, §7, §8, §2, §3, §4

Transplanted H460 tumor = assay: Inhibitory assay of conjugates LDC10B and LDC10H against xenograf tumors; assay type: in vivo, nude mice
Description: as §5
(§9) 1) human large cell lung cancer cell H460, human lung cancer cell A549, ovarian cancer cell SKOV3, and breast cancer cell line HCC1954 were incubated at 37° C., 5% CO2 in IMDM medium containing 10% fetal bovine serum, the cells were passaged every 2-3 days.
(§10) 2) generation of tumors: 7×10^6 tumor cells were injected subcutaneously into the back of nude mice, and the mice were grouped for treatment after the tumor sizes were as large as about 100-200 mm^3.
(§11) 3) treatment: 3 mice/group, treated with LDC10B, LDC10H, as well as controls MMAE and PBS with doses of 5 and 10 mg/kg every 5 days, three injections.
as §6

[6] = test system: Transplanted HCC1954 tumor; assay: as above; assay type: in vivo, nude mice; settings: 10 mg/kg
Description: as §5, §9, §10, §11, §6

[7] = Detection of conjugate concentrations in xenograf tumor models (serum, anti-MMAE ELISA); assay type: in vivo, nude mice; settings: 10 mg/kg, peritoneal injection
Description: as §5
1) Human ovarian cancer cell SKOV3 and breast cancer cell line HCC1954 were incubated at 37° C., 5% CO2 in IMDM medium containing 10% fetal bovine serum, the cells were passaged every 2-3 days.
2) generation of tumors: 7×10^6 tumor cells were injected subcutaneously into the back of nude mice, and the mice were grouped for treatment after the tumor sizes were as large as about 100˜200 mm^3.
3) treatment: 3 mice/group, 10 mg/kg, peritoneal injection.
4) blood collection: the time for blood collection before treatment was set as 0, blood was collected at 20 min, 2 h, 4 h, and 24 h after treatment. The blood was centrifuged to collect serum, which was frozen and preserved.
5) Detection: the total amount of MMAE, LDC10B, LDC10H, as well as the MMAE metabolites of LDC10B and LDC10H in serum were detected by mice anti-MMAE ELISA kit.

[8] = 2.5 mg/kg, 3 days after Injection 1
[9] = 2.5 mg/kg, 3 days after Injection 2
[10] = 2.5 mg/kg, 3 days after Injection 3
[11] = 2.5 mg/kg, 3 days after Injection 4
[12] = 2.5 mg/kg, 4 days after Injection 5
[13] = 2.5 mg/kg, 5 days after Injection 6
[14] = 2.5 mg/kg, 6 days after Injection 7
[15] = 5 mg/kg, 3 days after Injection 1
[16] = 5 mg/kg, 3 days after Injection 2
[17] = 5 mg/kg, 3 days after Injection 3
[18] = 5 mg/kg, 3 days after Injection 4
[19] = 5 mg/kg, 4 days after Injection 5
[20] = 5 mg/kg, 5 days after Injection 6

CC[C@H](C)[C@@H]([C@@H](CC(=O)N1CCC[C@H]1[C@H](OC)[C@@H](C)C(=O)N[C@H](C)[C@@H](O)c1ccccc1)OC)N(C)C(=O)[C@@H](NC(=O)[C@H](C(C)C)N(C)C(=O)OCc1ccc(NC(=O)[C@H](CCCNC(N)=O)NC(=O)[C@@H](NC(=O)CCCCCN2C(=O)CC(SC[C@H](NC(=O)[C@H](CCCNC(=N)N)NC(=O)[C@H](CCCNC(=N)N)NC(=O)[C@H](CCCNC(=N)N)NC(=O)[C@H](CCCNC(=N)N)NC(=O)[C@H](CCCNC(=N)N)NC(=O)[C@H](CCCNC(=N)N)NC(=O)[C@H](CCCNC(=N)N)NC(=O)[C@H](CCCNC(=N)N)NC(=O)[C@@H](N)CCCNC(=N)N)C(=O)NCCCC[C@H](NC(=O)[C@H](Cc3ccc(O)cc3)NC(=O)[C@H](CO)NC(=O)[C@H](Cc3c[nH]c4ccccc34)NC(=O)[C@H](Cc3c[nH]cn3)NC(=O)[C@@H]3CCC(=O)N3)C(=O)N[C@@H](CC(C)C)C(=O)N[C@@H](CCCNC(=N)N)C(=O)N3CCC[C@H]3C(=O)NCC(N)=O)C2=O)C(C)C)cc1)C(C)C (stereo partly shown) [LDC1013]
less toxic for A375 than for H460 and KB, respectively (melanoma cell line A375): 10-100 fold
tumor response (in words) ([1]; HCC1954, 7 doses at 2.5 mg/kg and 7 doses of 5 mg/kg injected every three days): completely eliminate
Body weight of mice [1, 8]: 24.46 g
Tumor size [1, 8]: 198 mm^3
Body weight of mice [1, 9]: 24.54 g
Tumor size [1, 9]: 198 mm^3
Body weight of mice [1, 10]: 23.94 g
Tumor size [1, 10]: 180 mm^3
Body weight of mice [1, 11]: 24.3 g
Tumor size [1, 11]: 113 mm^3
Body weight of mice [1, 12]: 24.98 g
Tumor size [1, 12]: 64 mm^3
Body weight of mice [1, 13]: 24.73 g
Tumor size [1, 13]: 22 mm^3
Body weight of mice [1, 14]: 24.43 g
Tumor size [1, 14]: 0 mm^3
Body weight of mice ([1]; 2.5 mg/kg, Before Injection): 24.14 g
Tumor size ([1]; 2.5 mg/kg, Before Injection): 180 mm^3
Body weight of mice [1, 15]: 20.7 g
Tumor size [1, 15]: 405 mm^3
Body weight of mice [1, 16]: 20.43 g
Tumor size [1, 16]: 405 mm^3
Body weight of mice [1, 17]: 21.31 g
Tumor size [1, 17]: 288 mm^3
Body weight of mice [1, 18]: 21.15 g
Tumor size [1, 18]: 88 mm^3
Body weight of mice [1, 19]: 21.21 g
Tumor size [1, 19]: 40 mm^3
Body weight of mice [1, 20]: 20.49 g
Tumor size [1, 20]: 0 mm^3
Body weight of mice ([1]; 5 mg/kg, 6 days after Injection 7): 24.49 g
Body weight of mice ([1]; 5 mg/kg, Before Injection): 21.92 g
Tumor size ([1]; 5 mg/kg, Before Injection): 320 mm^3

CC[C@H](C)[C@@H]([C@@H](CC(=O)N1CCC[C@H]1[C@H](OC)[C@@H](C)C(=O)N[C@H](C)[C@@H](O)c1ccccc1)OC)N(C)C(=O)[C@@H](NC(=O)[C@H](C(C)C)N(C)C(=O)OCc1ccc(NC(=O)[C@H](CCCNC(N)=O)NC(=O)[C@@H](NC(=O)CCCCCN2C(=O)CC(SC[C@H](NC(=O)[C@H](CCCNC(=N)N)NC(=O)[C@H](CCCNC(=N)N)NC(=O)[C@H](CCCNC(=N)N)NC(=O)[C@H](CCCNC(=N)N)NC(=O)[C@H](CCCNC(=N)N)NC(=O)[C@H](CCCNC(=N)N)NC(=O)[C@H](CCCNC(=N)N)NC(=O)[C@H](CCCNC(=N)N)NC(=O)[C@@H](N)CCCNC(=N)N)C(=O)N[C@@H](CCCCN)C(=O)N[C@@H](CCC(=O)O)C(=O)N[C@@H](Cc3ccccc3)C(=O)N[C@@H](CC(C)C)C(=O)N[C@@H](Cc3c[nH]cn3)C(=O)N3CCC[C@H]3C(=O)N[C@@H](CO)C(=O)N[C@@H](CCCCN)C(=O)N[C@H](C(=O)N[C@@H](CC(=O)O)C(=O)N[C@@H](CC(C)C)C(=O)N3CCC[C@H]3C(=O)N[C@@H](CCCNC(=N)N)C(=O)O)C(C)C)C2=O)C(C)C)cc1)C(C)C (stereo partly shown) [LDC10H] (I: H-RRRRRRRRRCKEFLHPSKVDLPR-OH / II: V[Cit][PABC][NMeV]V[Dil][Dolaproine]-X1; linker I:10-II:N via Hexanoyl(6-succinimido-3yl))
IC50 [2]: 36 nM
IC50 [3]: 73.8 nM
IC50 [4]: 90.4 nM
IC50 [5]: 85.3 nM
Body weight of mice (Transplanted H460 tumor; 5 mg/kg, Before Injection): 23.29 g
Body weight of mice (Transplanted H460 tumor; 5 mg/kg, Five days after Injection 1): 24.26 g
Body weight of mice (Transplanted H460 tumor; 5 mg/kg, Five days after Injection 2): 23.14 g
Body weight of mice (Transplanted H460 tumor; 5 mg/kg, Five days after Injection 3): 23.22 g
Body weight of mice (Transplanted H460 tumor; 10 mg/kg, Before Injection): 23.37 g
Body weight of mice (Transplanted H460 tumor; 10 mg/kg, Five days after Injection 1): 24.39 g
Body weight of mice (Transplanted H460 tumor; 10 mg/kg, Five days after Injection 2): 22.12 g
Body weight of mice (Transplanted H460 tumor; 10 mg/kg, Five days after Injection 3): 23.61 g
Body weight of mice ([6]; Before Injection): 22.05 g
Body weight of mice ([6]; Five days after Injection 1): 23.32 g
Body weight of mice ([6]; Five days after Injection 2): 22.87 g
Body weight of mice ([6]; Five days after Injection 3): 22.51 g
Concentration in serum ([7]; 20 min): 770 ng/mL
Concentration in serum ([7]; 2 h): 580 ng/mL
Concentration in serum ([7]; 4 h): 196 ng/mL
Concentration in serum ([7]; 24 h): 0 ng/mL
detected in serum at 24 h after treatment (in words) ([7]; 24 h): none
Concentration in serum ([7]; Before Treatment): 0 ng/mL
